Test [1] deals with T1, Ad5 fiber-zipper protein with zipper peptide RR12EE345L at the carboxy terminus of the fiber (Ad5 (adenovirus serotype 5), UniProt P11818 1-581).
T1 construct: Transiently expressed in 293 cells, tested as cell lysate; also called Carboxy terminus of the fiber RR12EE345L; pVS-LL-RN
T1 sequence: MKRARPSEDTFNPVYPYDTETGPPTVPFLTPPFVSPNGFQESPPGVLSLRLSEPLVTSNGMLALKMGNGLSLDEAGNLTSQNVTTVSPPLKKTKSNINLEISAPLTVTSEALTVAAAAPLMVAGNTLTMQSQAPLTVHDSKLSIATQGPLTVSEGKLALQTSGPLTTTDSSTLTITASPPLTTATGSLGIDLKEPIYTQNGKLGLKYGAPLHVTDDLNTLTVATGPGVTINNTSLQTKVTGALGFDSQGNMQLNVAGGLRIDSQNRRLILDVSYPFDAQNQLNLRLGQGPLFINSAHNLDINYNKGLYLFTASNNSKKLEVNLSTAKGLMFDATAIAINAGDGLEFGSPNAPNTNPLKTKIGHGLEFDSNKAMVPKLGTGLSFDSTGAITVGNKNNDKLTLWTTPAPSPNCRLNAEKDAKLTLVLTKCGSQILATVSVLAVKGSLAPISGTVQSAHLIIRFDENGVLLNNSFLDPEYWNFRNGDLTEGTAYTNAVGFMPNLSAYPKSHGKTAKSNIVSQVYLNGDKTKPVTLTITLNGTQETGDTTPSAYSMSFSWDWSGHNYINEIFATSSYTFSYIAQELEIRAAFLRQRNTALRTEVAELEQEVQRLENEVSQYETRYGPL
Kind of test: co-precipitation of cell lysate with 6His-tagged sCAR on Ni-NTA matrix, detection with anti-fiber antibody.

The target of test [2] is T2, Ad5 fiber-zipper protein with zipper peptide EE12RR345L at the carboxy terminus of the fiber (Ad5 (adenovirus serotype 5), UniProt P11818 1-581).
T2 construct: Transiently expressed in 293 cells, tested as cell lysate; also called Carboxy terminus of the fiber EE12RR345L; pVS-LL-EN
Described as above.

B1: soluble form of the coxsackie virus and adenovirus receptor (CAR) with a carboxy terminal 6His tag (receptor)
chain: LSITTPEEMIEKAKGETAYLPCKFTLSPEDQGPLDIEWLISPADNQKVDQVIILYSGDKIYDDYYPDLKGRVHFTSNDLKSGDASINVTNLQLSDIGTYQCKVKKAPGVANKKIHLVVLVKPSGARCYVDGSEEIGSDFKIKCEPKEGSLPLQYEWQKLSDSQKMPTSWLAEMTSSVISVKNASSEYSGTYSCTVRNRVGSDQCLLRLNVVPPSNKAHHHHHH
notes: also called sCAR; native adenoviral receptor
In the case of B1, the binding result in test [1] and in test [2] was “no binding” throughout.

Values taken from patent publication US20040171158A1 (VECTORLOGICS, published 2004).
